# In US20250066452A1, “SYNTHETIC AMPHIPATHIC HELICAL PEPTIDES AND TREATMENT METHODS USING SYNTHETIC AMPHIPATHIC HELICAL PEPTIDES” (UNIVERSITY OF MARYLAND, BALTIMORE, priority 2022, published 2025):
# B1: heat shock protein 60 (protein, UniProt P10809 27-573, looked up)
# 60 kDa heat shock protein, …: AKDVKFGADARALMLQGVDLLADAVAVTMGPKGRTVIIEQSWGSPKVTKDGVTVAKSIDLKDKYKNIGAKLVQDVANNTNEEAGDGTTTATVLARSIAKEGFEKISKGANPVEIRRGVMLAVDAVIAELKKQSKPVTTPEEIAQVATISANGDKEIGNIISDAMKKVGRKGVITVKDGKTLNDELEIIEGMKFDRGYISPYFINTSKGQKCEFQDAYVLLSEKKISSIQSIVPALEIANAHRKPLVIIAEDVDGEALSTLVLNRLKVGLQVVAVKAPGFGDNRKNQLKDMAIATGGAVFGEEGLTLNLEDVQPHDLGKVGEVIVTKDDAMLLKGKGDKAQIEKRIQEIIEQLDVTTSEYEKEKLNERLAKLSDGVAVLKVGGTSDVEVNEKKDRVTDALNATRAAVEEGIVLGGGCALLRCIPALDSLTPANEDQKIGIEIIKRTLKIPAMTIAKNAGVEGSLIVEKIMQSSSEVGYDAMAGDFVNMVEKGIIDPTKVVRTALLDAAGVASLLTTAEVVVTEIPKEEKDPGMGAMGGMGGGMGGGMF
# notes: DAMP, CD36 ligand
# Key:
# [1] = test system: wild-type (WT) HEK293 cells; experiment: IL-8 in conditioned medium (ELISA) of wild-type HEK293 cells after 20 hours incubation with CD36 ligands; format: cell-based; details: wildtype HEK293 cells; increasing ligand concentrations; 20 hours (FIG. 8)
# Description: (§1) Following 20 hours incubation of wild-type (WT) and CD36-expressing (CD36+) HEK293 cells with increasing concentrations of CD36 ligands, the IL-8 levels were determined in conditioned medium by ELISA.
# (§2) To study this, the applicant conducted cell culture experiments using wildtype (WT) and CD36+ expressing (CD36+) HEK293 cells, treated with increasing amounts of CD36 ligands. Specifically, the ligands tested were the PAMP lipopolysaccharide (LPS) and the DAMPs high mobility group box 1 protein (HMGB1), Histone H3B, and heat shock protein 60 (HSP60). […] Similarly to HSP60, it is presumed that HSP70 and HSP90 also cause inflammation mediated by the CD36 receptor, and which may be alleviated by the disclosed peptides.
# CD36 = molecular target: T1, CD36 (Homo sapiens, UniProt P16671); experiment: IL-8 in conditioned medium (ELISA) of CD36-expressing HEK293 cells after 20 hours incubation with CD36 ligands; format: cell-based; details: CD36-expressing HEK293 cells; increasing ligand concentrations; 20 hours (FIG. 8)
# T1 construct: expressed in transfected cells; host or cells: HEK293
# T1 sequence (P16671 whole entry): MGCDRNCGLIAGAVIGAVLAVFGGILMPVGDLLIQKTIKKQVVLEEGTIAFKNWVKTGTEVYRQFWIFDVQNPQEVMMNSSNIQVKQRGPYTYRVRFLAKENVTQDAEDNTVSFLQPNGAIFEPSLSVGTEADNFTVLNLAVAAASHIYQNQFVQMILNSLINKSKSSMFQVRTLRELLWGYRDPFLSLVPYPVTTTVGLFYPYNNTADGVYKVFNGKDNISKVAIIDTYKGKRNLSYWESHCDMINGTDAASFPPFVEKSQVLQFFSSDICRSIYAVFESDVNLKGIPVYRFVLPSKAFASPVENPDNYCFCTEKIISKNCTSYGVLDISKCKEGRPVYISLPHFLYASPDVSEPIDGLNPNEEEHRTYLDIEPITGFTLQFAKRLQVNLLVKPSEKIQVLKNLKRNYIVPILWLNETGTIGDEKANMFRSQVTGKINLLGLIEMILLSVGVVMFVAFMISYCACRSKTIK
# Description: as §1
# Following 20 hours incubation of CD36-expressing cells with the indicated amounts of the ligands, the IL-8 levels were determined in conditioned medium.
# as §2
# Additionally, the applicant studied the effects of the above-referenced SAHP L37pA as an inhibitor of CD36-dependent, PAMP/DAMP-induced pro-inflammatory response. See FIGS. 9(a)-9(c) To study this, the applicant conducted cell culture experiments using CD36+ HEK293 cells, treated with increasing amounts of CD36 ligands. […] As controls, no treatment, L37pA alone, and L3D alone were administered.
# As controls, no treatment, L37pA alone, and L3D alone were administered. […]
molecule,measurement,setting,value
B1,IL-8 produced by cells treated with the ligand,[1],minimal amount of interleukin 8
same,IL-8 produced by cells treated with the ligand,CD36,significant amount of IL-8
